Substitutions are numbered along the chain they refer to.
B1: NVS49-L2A1 (antibody, V domains shown)
VH: HVQLVQSGGGVKKIGAAVRISCEVTGYKFMDQLINWVRQAPGQGLEWMGWMNPTYGQVNYSWRFEGRVTMTRDMDTETAFMELRGLRVDDTAVYYCARGPSGENYPFHYWGQGVRVVVSS
VL: ASALTQPASMSASPGQSVTISCSGTRHIISAWFQQYPGKPPKLIIFDDDKRPSGVPSRFSASRPGDTASLTISNVQPEDEATYICNTYEFFGGGTRLTVL
B2: L2A1_H58NQ (antibody, V domains shown)
VH: B1 VH with N59Q
VL: B1 VL
B3: L2A1_H58ND (antibody, V domains shown)
VH: B1 VH with N59D
VL: B1 VL
B4: L2A1_H58NS (antibody, V domains shown)
VH: B1 VH with N59S
VL: B1 VL
B5: L2A1_H58NA (antibody, V domains shown)
VH: B1 VH with N59A
VL: B1 VL
B6: L2A1_H60SA (antibody, V domains shown)
VH: B1 VH with S61A
VL: B1 VL
B7: L2A1_H60SN (antibody, V domains shown)
VH: B1 VH with S61N
VL: B1 VL

Legend:
Test in all cases: cell-based or functional assay
[1] = molecular target: HIV-1 envelope (Env) of virus CNE20 (HIV-1)
[2] = molecular target: HIV-1 envelope (Env) of virus AC10.0.29 (HIV-1)
[3] = molecular target: HIV-1 envelope (Env) of virus CAP45.2.00.G3 (HIV-1)
[4] = molecular target: HIV-1 envelope (Env) of virus REJO4541.67 (HIV-1)
[5] = molecular target: HIV-1 envelope (Env) of virus WITO4160.33 (HIV-1)
[6] = molecular target: HIV-1 envelope (Env) of virus DU172.17 (HIV-1)

Row | Binder | IC50 of viral neutralization (Env.IMC.LucR virus, TZM-BL reporter cells) [1] | IC50 of viral neutralization (Env.IMC.LucR virus, TZM-BL reporter cells) [2] | IC50 of viral neutralization (Env.IMC.LucR virus, TZM-BL reporter cells) [3] | IC50 of viral neutralization (Env.IMC.LucR virus, TZM-BL reporter cells) [4] | IC50 of viral neutralization (Env.IMC.LucR virus, TZM-BL reporter cells) [5] | IC50 of viral neutralization (Env.IMC.LucR virus, TZM-BL reporter cells) [6]
1 | B1 | 0.05 µg/mL | 0.306 µg/mL | 0.069 µg/mL | 0.022 µg/mL | 0.213 µg/mL | 0.128 µg/mL
2 | B2 | > 50 µg/mL | > 50 µg/mL | – | 0.025 µg/mL | 0.222 µg/mL | 2.27 µg/mL
3 | B3 | > 50 µg/mL | > 50 µg/mL | – | 0.212 µg/mL | 0.65 µg/mL | 20.9 µg/mL
4 | B4 | > 50 µg/mL | 0.091 µg/mL | 0.04 µg/mL | 0.206 µg/mL | 0.182 µg/mL | 0.102 µg/mL
5 | B5 | > 50 µg/mL | 0.098 µg/mL | 0.05 µg/mL | 0.104 µg/mL | 0.259 µg/mL | 0.218 µg/mL
6 | B6 | 0.17 µg/mL | 0.072 µg/mL | 0.039 µg/mL | 0.105 µg/mL | 0.148 µg/mL | 0.056 µg/mL
7 | B7 | 0.317 µg/mL | 0.087 µg/mL | 0.032 µg/mL | 0.121 µg/mL | 0.212 µg/mL | 0.044 µg/mL
